What was measured:
Ev1 protein [1] = target: T1, Ev1 protein (Homo sapiens, UniProt Q9UI08); experiment: Influence of Rad51B or Rad51 on catenation of single-stranded DNA by the Ev1 protein; format: biochemical
T1 construct: in accordance with the protocols used in purification of the entire-length Ev1 protein; 6xHis (N, cleaved yes); made in house; host or cells: E. coli BL21 (DE3) codon plus-RP, pET15b vector
T1 sequence (Q9UI08 1-418 isoform Q9UI08-2): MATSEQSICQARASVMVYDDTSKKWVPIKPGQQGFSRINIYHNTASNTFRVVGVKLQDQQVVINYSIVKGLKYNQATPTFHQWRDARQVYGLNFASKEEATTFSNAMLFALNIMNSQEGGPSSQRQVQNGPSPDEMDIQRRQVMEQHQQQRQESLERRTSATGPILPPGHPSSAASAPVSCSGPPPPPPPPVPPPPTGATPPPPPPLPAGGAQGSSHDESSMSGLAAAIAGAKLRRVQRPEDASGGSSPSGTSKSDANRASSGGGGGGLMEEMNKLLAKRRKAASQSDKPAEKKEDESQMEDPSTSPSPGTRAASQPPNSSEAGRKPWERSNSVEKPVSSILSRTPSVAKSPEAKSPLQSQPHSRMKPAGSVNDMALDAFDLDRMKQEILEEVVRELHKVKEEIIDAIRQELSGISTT
Procedure: Lanes 1 and 5 indicate the results of control experiments in which neither the Ev1 nor the Rad51B protein was used. Lanes 2 and 6 indicate the results of experiments that were carried out using a 4 μM Rad51B protein in the absence of the Ev1 protein. Lanes 3 and 7 indicate the results of experiments that were carried out using a 4 μM Ev1 protein in the absence of the Rad51B protein. Lanes 4 and 8 indicate the results of experiments that were carried out using a 4 μM Ev1 protein and a 4 μM Rad51B protein. Further, lanes 1-4 indicate the results of experiments that were carried out in the presence of ATP, and lanes 5-8 indicate the results of experiments that were carried out in the absence of ATP. […] Lanes 1 and 5 indicate the results of control experiments in which neither the Ev1 nor the Rad51 protein was used. Lanes 2 and 6 indicate the results of experiments that were carried out using a 4 μM Rad51 protein in the absence of the Ev1 protein. Lanes 3 and 7 indicate the results of experiments that were carried out using a 4 μM Ev1 protein in the absence of the Rad51 protein. Lanes 4 and 8 indicate the results of experiments that were carried out using a 4 μM Ev1 protein and a 4 μM Rad51 protein. Further, lanes 1-4 indicate the results of experiments that were carried out in the presence of ATP, and lanes 5-8 indicate the results of experiments that were carried out in the absence of ATP.
The Rad51B protein was mixed in a concentration of 0.5 to 8 μM with a 4 μM Ev1 protein, and the activity was then measured. Lane 1 indicates the results of a control experiment in which neither the Rad51B protein nor the Ev1 protein was added, and lane 8 indicates the results of a control experiment in which a 8 μM Rad51B protein was added and no Ev1 protein was added. Lanes 2-7 indicate the results of experiments in which the Rad51B protein was added in concentrations of 0 μM, 0.5 μM, 1.0 μM, 2.0 μM, 4.0 μM, and 8.0 μM, respectively, in the presence of 4 μM Ev1.
A φ×174 or M13 mp18 circular single-stranded DNA (20 μM) was incubated at 37° C. in 20 mM HEPES-NaOH (pH 7.5), 1 mM DTT, 1 mM MgCl2, and 0.1 mg/ml BSA. Thereafter, the sample was subjected to a deproteination treatment with 0.2% SDS and 1.3 mg/ml proteinase K. The obtained product was separated by 0.9% agarose gel electrophoresis, and a DNA band was then stained with SYBR Gold (Invitrogen).

Ev1 protein [2] = target: T1, Ev1 protein; experiment: Catenation of single-stranded DNA in coexistence of DNA topoisomerase type I protein and Ev1 protein; format: biochemical; conditions: 20 μM φ×174 single-stranded DNA; 37° C., 1 hour; E. coli TopoI 0.05-5 U or 2.8 nM hsTopoI
Procedure: A 20 μM φ×174 single-stranded DNA, a 4 μM Ev1 protein, and a DNA topoisomerase type I protein in each concentration or unit number (derived from Escherichia coli or a human) were added to 10 μl of a reaction solution (20 mM HEPES, 1 mM DTT, 100 μg/ml BSA, and 1 mM MgCl2). The obtained mixture was reacted at 37° C. for 1 hour. Thereafter, the sample was subjected to a deproteination treatment using 0.2% SDS and 1.3 mg/ml proteinase K. The obtained product was separated by 0.9% agarose gel electrophoresis, and a DNA band was then stained with SYBR Gold (Invitrogen) (FIG. 13).

B1: Rad51B: Rad51B protein purified by the previously reported method (Yokoyama et al.) (protein)
chain: MGSKKLKRVGLSQELCDRLSRHQILTCQDFLCLSPLELMKVTGLSYRGVHELLCMVSRACAPKMQTAYGIKAQRSADFSPAFLSTTLSALDEALHGGVACGSLTEITGPPGCGKTQFCIMMSILATLPTNMGGLEGAVVYIDTESAFSAERLVEIAESRFPRYFNTEEKLLLTSSKVHLYRELTCDEVLQRIESLEEEIISKGIKLVILDSVASVVRKEFDAQLQGNLKERNKFLAREASSLKYLAEEFSIPVILTNQITTHLSGALASQADLVSPADDLSLSEGTSGSSCVIAALGNTWSHSVNTRLILQYLDSERRQILIAKSPLAPFTSFVYTIKEEGLVLQAYGNS
Ev1 protein [1]; 4 μM Rad51B, 4 μM Ev1 protein, absence of ATP
  effect on catenation of DNA molecules by the Ev1 protein: not significant
Ev1 protein [1]; 4 μM added protein, 4 μM Ev1 protein, presence of ATP
  effect on catenation of DNA molecules by the Ev1 protein: significantly promoted

B2: Rad51 protein: Rad51 protein showing sequence similarity to Rad51B (protein, UniProt Q06609 2-339, looked up)
DNA repair protein RAD51 …: AMQMQLEANADTSVEEESFGPQPISRLEQCGINANDVKKLEEAGFHTVEAVAYAPKKELINIKGISEAKADKILAEAAKLVPMGFTTATEFHQRRSEIIQITTGSKELDKLLQGGIETGSITEMFGEFRTGKTQICHTLAVTCQLPIDRGGGEGKAMYIDTEGTFRPERLLAVAERYGLSGSDVLDNVAYARAFNTDHQTQLLYQASAMMVESRYALLIVDSATALYRTDYSGRGELSARQMHLARFLRMLLRLADEFGVAVVITNQVVAQVDGAAMFAADPKKPIGGNIIAHASTTRLYLRKGRGETRICKIYDSPCLPEAEAMFAINADGVGDAKD
Ev1 protein [1]; 4 μM Rad51, 4 μM Ev1 protein, regardless of presence or absence of ATP
  effect on catenation of DNA molecules by the Ev1 protein: inhibited the catenation of DNA molecules by the Ev1 protein

B3: DNA topoisomerase type I protein derived from Escherichia coli: TopoI (E. coli, New England Biolabs) (protein, UniProt P06612 1-865, looked up)
DNA topoisomerase 1: MGKALVIVESPAKAKTINKYLGSDYVVKSSVGHIRDLPTSGSAAKKSADSTSTKTAKKPKKDERGALVNRMGVDPWHNWEAHYEVLPGKEKVVSELKQLAEKADHIYLATDLDREGEAIAWHLREVIGGDDARYSRVVFNEITKNAIRQAFNKPGELNIDRVNAQQARRFMDRVVGYMVSPLLWKKIARGLSAGRVQSVAVRLVVEREREIKAFVPEEFWEVDASTTTPSGEALALQVTHQNDKPFRPVNKEQTQAAVSLLEKARYSVLEREDKPTTSKPGAPFITSTLQQAASTRLGFGVKKTMMMAQRLYEAGYITYMRTDSTNLSQDAVNMVRGYISDNFGKKYLPESPNQYASKENSQEAHEAIRPSDVNVMAESLKDMEADAQKLYQLIWRQFVACQMTPAKYDSTTLTVGAGDFRLKARGRILRFDGWTKVMPALRKGDEDRILPAVNKGDALTLVELTPAQHFTKPPARFSEASLVKELEKRGIGRPSTYASIISTIQDRGYVRVENRRFYAEKMGEIVTDRLEENFRELMNYDFTAQMENSLDQVANHEAEWKAVLDHFFSDFTQQLDKAEKDPEEGGMRPNQMVLTSIDCPTCGRKMGIRTASTGVFLGCSGYALPPKERCKTTINLVPENEVLNVLEGEDAETNALRAKRRCPKCGTAMDSYLIDPKRKLHVCGNNPTCDGYEIEEGEFRIKGYDGPIVECEKCGSEMHLKMGRFGKYMACTNEECKNTRKILRNGEVAPPKEDPVPLPELPCEKSDAYFVLRDGAAGVFLAANTFPKSRETRAPLVEELYRFRDRLPEKLRYLADAPQQDPEGNKTMVRFSRKTKQQYVSSEKDGKATGWSAFYVDGKWVEGKK
Ev1 protein [2]
  effect on catenation of single-stranded DNA molecules in coexistence with the Ev1 protein: promoted

B4: DNA topoisomerase type I protein derived from a human: hsTopoI (human, Jena Bioscience) (protein, UniProt P11387 2-765, looked up)
DNA topoisomerase 1: SGDHLHNDSQIEADFRLNDSHKHKDKHKDREHRHKEHKKEKDREKSKHSNSEHKDSEKKHKEKEKTKHKDGSSEKHKDKHKDRDKEKRKEEKVRASGDAKIKKEKENGFSSPPQIKDEPEDDGYFVPPKEDIKPLKRPRDEDDADYKPKKIKTEDTKKEKKRKLEEEEDGKLKKPKNKDKDKKVPEPDNKKKKPKKEEEQKWKWWEEERYPEGIKWKFLEHKGPVFAPPYEPLPENVKFYYDGKVMKLSPKAEEVATFFAKMLDHEYTTKEIFRKNFFKDWRKEMTNEEKNIITNLSKCDFTQMSQYFKAQTEARKQMSKEEKLKIKEENEKLLKEYGFCIMDNHKERIANFKIEPPGLFRGRGNHPKMGMLKRRIMPEDIIINCSKDAKVPSPPPGHKWKEVRHDNKVTWLVSWTENIQGSIKYIMLNPSSRIKGEKDWQKYETARRLKKCVDKIRNQYREDWKSKEMKVRQRAVALYFIDKLALRAGNEKEEGETADTVGCCSLRVEHINLHPELDGQEYVVEFDFLGKDSIRYYNKVPVEKRVFKNLQLFMENKQPEDDLFDRLNTGILNKHLQDLMEGLTAKVFRTYNASITLQQQLKELTAPDENIPAKILSYNRANRAVAILCNHQRAPPKTFEKSMMNLQTKIDAKKEQLADARRDLKSAKADAKVMKDAKTKKVVESKKKAVQRLEEQLMKLEVQATDREENKQIALGTSKLNYLDPRITVAWCKKWGVPIEKIYNKTQREKFAWAIDMADEDYEF
Ev1 protein [2]
  effect on catenation of single-stranded DNA molecules in coexistence with the Ev1 protein: promoted

— US20100068766A1, “COMPOSITION FOR CLEAVING AND/OR CONNECTING SINGLE STRAND DNA” (WASEDA UNIVERSITY, priority 2007, published 2010)
